Results published in the supplement of paper PMC10567573.
± gives the standard deviation.

Test: protein stability index of a GFP-peptide fusion (GPS, HEK-293T) (PSI 1-6); higher = more stable
Conditions: c terminus: a fixed tail appended
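Note: 24-mer peptide tiles fused after GFP, lentivirally expressed, FACS-sorted into six equal bins by GFP/DsRed ratio, decoded by Illumina sequencing, PSI is the read-weighted mean bin number.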

For LREAEIARIRDEEAQRASFLQNAV [LRRC45], the protein stability index (treatment: DMSO) was 4.37 ± 0.18 and the protein stability index (treatment: MLN4924 1 uM, 8 h) was 4.43 ± 0.27.
Sequence HPEVKCVGSVALTALVTVSSEEFE [C8orf76] has a protein stability index (treatment: DMSO) of 3.27 ± 0.19 and a protein stability index (treatment: MLN4924 1 uM, 8 h) of 3.31 ± 0.52.
CALNALTTTVCLVAAALRYLQIFA [FAM189A2] gave a protein stability index (treatment: DMSO) of 2.75 ± 0.37 and a protein stability index (treatment: MLN4924 1 uM, 8 h) of 3.1 ± 0.23.
For QQVKCIITEEKVCMVCKKKIGNSA [VPS39], the protein stability index (treatment: DMSO) was 3.24 ± 0.4 and the protein stability index (treatment: MLN4924 1 uM, 8 h) was 3.6 ± 0.66.
Sequence LHRLKFLGFARRNWGNGKRPNLET [GDAP1] has a protein stability index (treatment: DMSO) of 2.22 ± 0.32 and a protein stability index (treatment: MLN4924 1 uM, 8 h) of 2.44 ± 0.45.
With MDLRTAVYNAARDGKLQLLQKLLS [FEM1A] the protein stability index (treatment: DMSO) was 2.21 ± 0.26 and the protein stability index (treatment: MLN4924 1 uM, 8 h) was 2.28 ± 0.24.
For LDPRYKRLPFLSAFERQQVENRVV [ZBED1], the protein stability index (treatment: DMSO) was 3.36 ± 0.091 and the protein stability index (treatment: MLN4924 1 uM, 8 h) was 3.47 ± 0.13.
YRFFKYIENRDVAKSVLKERGLKK [BTBD10] gave a protein stability index (treatment: DMSO) of 2.44 ± 0.25 and a protein stability index (treatment: MLN4924 1 uM, 8 h) of 2.52 ± 0.3.
Sequence VIQPALPGQPLPGASVRGLHPVQK [TRAF3IP2] has a protein stability index (treatment: DMSO) of 3.76 ± 0.34 and a protein stability index (treatment: MLN4924 1 uM, 8 h) of 3.66 ± 0.39.
ALMHTLQRHRDILQVIYWARDVFI [GOSR1] showed a protein stability index (treatment: DMSO) of 2.84 ± 0.5 and a protein stability index (treatment: MLN4924 1 uM, 8 h) of 2.26 ± 0.47.
For HFSSIPDAFWWAVVSMTTVGYGDM [KCNA1], the protein stability index (treatment: DMSO) was 3.56 ± 0.34 and the protein stability index (treatment: MLN4924 1 uM, 8 h) was 3.12 ± 0.29.
RPKLSEEQQRIIAILLDAHHKTYD [VDR] showed a protein stability index (treatment: DMSO) of 2.58 ± 0.28 and a protein stability index (treatment: MLN4924 1 uM, 8 h) of 2.75 ± 0.41.
NVHTGEFRNCGACVTLMQGHEGSV [WDR88] gave a protein stability index (treatment: DMSO) of 2.35 ± 0.5 and a protein stability index (treatment: MLN4924 1 uM, 8 h) of 2.17 ± 0.2.
PKGSLSMGPAPRARPWTRDSASLP [RASAL3] gave a protein stability index (treatment: DMSO) of 3.81 ± 0.13 and a protein stability index (treatment: MLN4924 1 uM, 8 h) of 4.04 ± 0.4.
LGCQGAQFVSSVPRCDLVDLGEGK [FAM189A2] showed a protein stability index (treatment: DMSO) of 4.31 ± 0.14 and a protein stability index (treatment: MLN4924 1 uM, 8 h) of 4.18 ± 0.13.
For SLALVQNGDVSAPSAILRTPESTK [ANKRD40], the protein stability index (treatment: DMSO) was 4.07 ± 0.36 and the protein stability index (treatment: MLN4924 1 uM, 8 h) was 4.06 ± 0.17.
APAPSQVKSKAKKTVDKHSDEYKI [CEBPB] gave a protein stability index (treatment: DMSO) of 5.36 ± 0.17 and a protein stability index (treatment: MLN4924 1 uM, 8 h) of 5.37 ± 0.25.
In the case of LFYSAEVEMLCDQAWGSMLEVPAG [CCDC3], the protein stability index (treatment: DMSO) is reported as 1.92 ± 0.53 and the protein stability index (treatment: MLN4924 1 uM, 8 h) is reported as 2.26 ± 0.41.
Sequence RLFTQLKFGVVQTSVEECSQKGCL [CLCN6] has a protein stability index (treatment: DMSO) of 2.29 ± 0.46 and a protein stability index (treatment: MLN4924 1 uM, 8 h) of 2.61 ± 0.27.
Work on YKGHTDVVRYLLEQRADPNAKAHC [FEM1B] yielded a protein stability index (treatment: DMSO) of 3.27 ± 0.44 and a protein stability index (treatment: MLN4924 1 uM, 8 h) of 3.6 ± 0.17.
Work on RLVLDAALALQARGCSVKIWTAHY [ALG2] yielded a protein stability index (treatment: DMSO) of 2.87 ± 0.68 and a protein stability index (treatment: MLN4924 1 uM, 8 h) of 2.69 ± 0.72.
PPQSPQGASSLPTTMNYPLWSQSY [MAGEA3] gave a protein stability index (treatment: DMSO) of 3.45 ± 0.21 and a protein stability index (treatment: MLN4924 1 uM, 8 h) of 3.47 ± 0.22.
Sequence SKSCMRAVLEYLYTGMFTSSPDLD [RHOBTB2] has a protein stability index (treatment: DMSO) of 2.28 ± 0.039 and a protein stability index (treatment: MLN4924 1 uM, 8 h) of 2.05 ± 0.49.
Work on SRRFEAVGWWALLALVTLLSFATR [POMT2] yielded a protein stability index (treatment: DMSO) of 2.29 ± 0.28 and a protein stability index (treatment: MLN4924 1 uM, 8 h) of 2.09 ± 0.33.
In the case of TKRCFRLAPTFSNLLLQPTTNPHT [SMG5], the protein stability index (treatment: DMSO) is reported as 2.41 ± 0.22 and the protein stability index (treatment: MLN4924 1 uM, 8 h) is reported as 2.59 ± 0.29.
In the case of MDSKDVEVSSIQVRRKPQHGVCSQ [SERPINB9P1], the protein stability index (treatment: DMSO) is reported as 4.47 ± 0.13 and the protein stability index (treatment: MLN4924 1 uM, 8 h) is reported as 4.64 ± 0.22.
For ISQEEFARQLQLSDPQTVAGAFGY [LPCAT4], the protein stability index (treatment: DMSO) was 3.41 ± 0.43 and the protein stability index (treatment: MLN4924 1 uM, 8 h) was 3.09 ± 0.41.
In the case of HARARDQGQPAMEGHCVIQVDVGD [PCDHGC5], the protein stability index (treatment: DMSO) is reported as 4.61 ± 0.068 and the protein stability index (treatment: MLN4924 1 uM, 8 h) is reported as 4.58 ± 0.23.
For VKARKQEIIKVTEQLIEAINNGDF [CAMK2D], the protein stability index (treatment: DMSO) was 2.59 ± 0.28 and the protein stability index (treatment: MLN4924 1 uM, 8 h) was 2.93 ± 0.3.
For TWRHRETLIIAVLVSASIANLWLW [FATE1], the protein stability index (treatment: DMSO) was 3.2 ± 0.37 and the protein stability index (treatment: MLN4924 1 uM, 8 h) was 2.77 ± 0.26.
Work on TLIVVDASGLGLEITTQFLIYASY [SLC19A2] yielded a protein stability index (treatment: DMSO) of 3.32 ± 0.54 and a protein stability index (treatment: MLN4924 1 uM, 8 h) of 3.32 ± 0.4.
SIPLMGFEFEVRVCDSCHEAITDE [WDFY2] gave a protein stability index (treatment: DMSO) of 3.38 ± 0.17 and a protein stability index (treatment: MLN4924 1 uM, 8 h) of 3.54 ± 0.32.
For FPSLHQSLPQNQCYMATTKSQTAC [EHMT1], the protein stability index (treatment: DMSO) was 3.06 ± 0.15 and the protein stability index (treatment: MLN4924 1 uM, 8 h) was 3.47 ± 0.2.
DLCLLYPPFMIALACLHVACVVQQ [CCNC] gave a protein stability index (treatment: DMSO) of 3.11 ± 0.28 and a protein stability index (treatment: MLN4924 1 uM, 8 h) of 3.12 ± 0.24.
ADSMLMQGSRGLTDQAIFYAVTPL [HDAC6] showed a protein stability index (treatment: DMSO) of 2.54 ± 0.39 and a protein stability index (treatment: MLN4924 1 uM, 8 h) of 2.46 ± 0.44.
CANFGDQGITMGCWDMYRHDIDCQ [LOXL2] showed a protein stability index (treatment: DMSO) of 2.42 ± 0.29 and a protein stability index (treatment: MLN4924 1 uM, 8 h) of 2.6 ± 0.57.
